Reference: the domain aggregation screens of Martell et al. (2025)

experiment: soluble fraction after stress (log2 fold change); higher = more stays soluble; pooled small domains, quantitative proteomics; settings: stress: 50 degC
Summary of the method: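 The measure of aggregation propensity here is the base-two logarithm of the fold change in the soluble amount of each protein after stress. A higher value means more of that protein stays in solution. Stress was applied at 50°C to pooled libraries of small protein domains, read out by high-throughput quantitative proteomics.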

| Sequence | soluble fraction (log2) |
| --- | --- |
| HMTQSQSLQSQFEQLEKAYQDNLHLLSPKQKLIIQEAGKIIQQLPQQAQIQAKVNLYQSLSAEISKESQQ | 0.118 |
| HMEKIIGQIQINQRGNGYVIVPNVKDDIFVKRENLNSARQGDRVAVQLLSRPNQKPEGLVQEVLERGQ | 0.461 |
| HMDEVPMPPEYQYLRVGSRVHHATFGWGKVTRLSQPWPQTRAEVFFENIGPKKLVLAHAHLTMD | -0.727 |
| HMEYYEDEELDRFRGRNSDQYSDAEIEEFNEILTTLRSEEVAGWIRSLQLREIALPDELKDDVILLVG | -0.804 |
| HMNADAIIGRMGKVTEPITPDGYGRVEIDGDSWKATAVGGVAIAEGTRVSVVSLDSIIITVKTV | -0.293 |
| HMGELRAPLPGVIVSIPVKEGDEVKAGQAILIIEAMKMESEISSPIDAKVAKIVVKERVLVQEGDILIILE | -0.702 |
| HMSSESIKTDKNVGVGSTLEELEKAYGSDYTLSGKMYRYYQDDNSKYMYFFILNDVVQYYGYGIDV | -1.53 |
| HMVSDAWITGKVKSQLLADDVTPGMKIDVDTEDRIVSLKGTVPSLTARNEAIRIASHTKGVRTVDADELIV | 0.118 |
| HMTTTPTSQMVTELRSRGWTLRALAQRLGVGHASINRWANGVTPDRDLVAALRALVASGEVP | -0.216 |
| HMREYEKAVDYVRRMISSGSLNVGDRLPTERELSLELDISRNSTREAMRMLENMGIIVSRHGSGNYISGN | -0.594 |
| HMTDVIADMLTRIRNAASSKHQTVDIPSSNLKKEIAKILLEEGYIRDFIEIDDKKQGIIRITL | -0.389 |
| HMEVNMEEKMEFVHSYIKTHKTFLFRQLLSESKSRTQVIVTFLVILELIKGGKISVTQENRTDDILINSL | -0.342 |
| HMFAQDKKFITYKVKEGETVQSISKALSITPYDLLKLNPDIKDNVSQDDLLIIPNKQYDPLGDI | 0.144 |
| HMTRQNTAVQQSDMAHHKASELTEGMSIVHSHFGRGTIISIETADDPRVTVDFSSEGRKTMLLRFAKFAIE | -0.118 |
| HMDGLIRLNKLLATLGVESRRHAEEMIIAGRITVDGVTATEKGQKVRRGAVIKVDGVEVGPPP | -0.121 |
| HMIVNTTRAPYLLGETEQDAMRLARQAGLVPEIVRQSSAEPAGTVILQSHDFDYRMRRGSVILITVSTGPL | -2.15 |
| HMGMYAEERHQAIASLARKHGRVSVAELAERFNVTSETIRRDLDSLARRGLLTRVHGGAVPVE | 0.0963 |
| HMMEERVIEFANVLRRNGVRVSLAENMDAFRALKSLGISDPLLFRHALRATLIKRGSDIQPFEELFDFFFL | -1.26 |
| HMRRISLEDWQLIESLIRRDWSPEQISLWLKKYKKIRVSHEWIYQYILKDKSKAGDLHTHLRSR | -0.174 |
| HMPTFAEKLHEVRKARDFTQDQLAKEMNVSRQTISHWENGRAVPDIDTIKHLSQVLDYNFLV | 0.124 |
| HMSDEIQLQFIQISIFKDHPWADMQIKDMNIIPDLLIVMILRDGERIIPNGNTRIMPGDMVIITAMSANT | -2.89 |
| HMKSLLTARQLEVFEIARNKGYWTTPRKISLVELSKLLDISKSTLSVLLHSIEGKVMEEFYEEIRQ | -1.81 |
| HMSLSISSLVFFRKNAGLTQADIATAMSITQSAVARLEKRLLSDSDVTLKTLERYAEAVGIRMHVDFEP | -0.0207 |
| HMDENTEQESQTVVVPDVTGKSLSEAASILREAGLDYLAEQTGTVVTKQMPLPDAEVLINTTVLLYTDSE | 0.0118 |
| HMFDLDIEQIANDLKHGVMPNLYGLSLQDALYLLEAKGIRVKVAGSGSVVNQSIKTGAYVGSGSVLKLEL | -1.26 |

| Sequence | soluble fraction (log2) |
| --- | --- |
| HMINEVVSLRDVPSFIGKAKRDVIRIAEENNLKIKINGNGYVKEQTPNPGNKYKSNQEIKVFLEPG | 0.0894 |
| HMTTSNPMNVTSAEAAFDNGTDRLNAFISGRTTSEERSTYFPLFVRETKEDFLRAVGRFNEYIANHG | 0.0364 |
| HMNPFLELTEREMDVLRLIAIGRNNQEIASELVISEKTVKTHITNIFSKLHFKDRTQAAAYAWQSGIVR | -0.74 |
| HMSGIGTTIKMLRENKNISQEELGNVLGVSDKTISSWEINRTEPKMGIVQLLADYFGVSTDYLIKG | -0.146 |
| HMIEIKNLSFSYGKKKQSVFNDFSLTLDKGSVYGLLGKNGTGKSTLLYLMTGLLRPQAGQVLYKGVDVS | 0.0827 |
| HMVSPEVEMLRAAVETMSERQKQVYELHYLRGFNVKETAAILGMSSPTVTAHKKRIMEIIKKFFE | -1.22 |
| HMTKNIIVTTSVKTSDELVEVAKNHALNLELDFNYRNKKTIKELLSSFDGLVVIYKNKISYFEDNSELF | 0.0798 |
| HMENRILLSEDSLKHLAQDIPIDIIEKLSVLKDQIYHRYDDFNSIVQGLLGGENYLKYKDNILSFVEQ | 0.0624 |
| HMHDYNTIVGVIEMRDKNIPLTSIRQRYGIGYSGIDLILTRYKDSGLTLKEFLALDPSQAEELIYPPK | -0.622 |
| HMEHPNNTELTQKLELGTELMQYGDYNYALKVFNNVIDSDPEWSEAWNKRATVYFLMSQFTDSLSDIDRV | 0.32 |
| HMSIESPEEFNAKFPPGSEIYATNIQKNAIVQSPANAKGDVEILANSMRLTINFRFISKRDT | 0.0469 |
| HMVDALYGQGARVMRDFSEGSGIVKLDNGETWTGRLSPAASGASLYVGDRVIVTRIDGAIAEVTPP | -0.0539 |
| HMKDPSLEHIDALAGKPFQAFPGQDHRAHITAHLNFMSTNMVRNNPSIMAAIQKNILEHISLMAQEQIQL | -0.783 |
| HMQKFINQEHEKAYNLMLEKDYQQALKIFDDLIYLFPNEANLLSDRGVIFIHLNKKEAALQDFDQAVF | -2 |
| HMDGQPQLLIKNGQLLVSTALKNGMSANDLMFRLRTEGITDIRYVKRAVLEQNGQLTITQVGDD | -0.105 |
| HMDVSPVRLIREARGLSQVEVAKAAGLSRAAYQNIEVGKTVPRASTMVNIARALGVSMDDLLAPV | -0.251 |
| HMDYRSMSGLQKAALLIMSVGEETAAKLFQLMHDDEIREISQTMANLGTVNATVIERLFVEFADAISS | -0.966 |
| HMAQDIEQLEKAVSFYTRMDPAAAALSITNLDQKTAVNILMRMKDKQASAVLESMTAERSSELIDSIARK | 0.00388 |
| HMENFKVFMKAVQEVSPVPVRFDEISSGAKGYYSNTEKEIVIQNGMSESQTMKTGIHEVTHAMLHDRDF | 0.113 |
| HMFDMLGDQIKKYRKEKKMSQEELAIPLNVVRQTVSKWENNLSVPDAELLIRLAEVLEISVAELLGT | -0.108 |
| HMESWNRARILEKIRELHAQGVALNNASMRRLGYRGMMEAAARPQNFGSWEAAVRAAGIDYDRV | -0.00832 |
| HMTVSADIIQKIIKTSTTDENIITIDSISNSISKLALSKITAEDIIEILEASSLVLRNSNGSWTVL | -0.617 |
| HMLMNADVLVKYQEDHWIVISEKASQASDTFDKKEQAVERAKEIAKNKNSSVKVYKQDGTLQDTFDYS | 0.122 |
| HMKQYSFEISKADFKKISENFNFKIINEINDSLIISLNDKNINLDELLIFFVERKIKVRSIENI | -0.986 |
| HMGRKIDDPSSMTGAEKAAVILLALGDEQRQLWEMMDDEEIRVVSQAMVNLGNVTSGAVEKLIMEFVGSMS | -0.243 |

| Sequence | soluble fraction (log2) |
| --- | --- |
| HMVVKSPLEMAFDKFREMRKKIRKPMTERAEELIWKELSKLAGEDSDLKIEILEQSIRNGWQDVYAVK | -0.265 |
| HMHDIPDITDLRPLRHTLGLTLAHAAQQLNTTTATISRLERGQHRNDHLATTYRTWLHTHPT | -0.15 |
| HMIERLVVSPAAGVFTKKMSVENNTRIDVGHVLGHVGETEVRSPFAGILQNYIAVDGERLTAHQPIAWLRS | 0.00717 |
| HMETPSNTAGITHATSDGYIFKGESDIIGRNSFGFIVKHGSHNHIIPFDSLRGTKWEYLINKYT | 0.21 |
| HMGAKLTTAQGGTLKVLVKGKKTHTPTIELRDKDPDFPNAKVVQPDINKGNKQIAHGINGVL | 0.514 |
| HMPTELVYTVPASAEGLRLDHFLVQHVPHMTRALATELTGAGGVRVNGRRAKKGDRLPSGAEVRLER | 0.178 |
| HMTKDEFLTTLRTLIQDMPPEDRRDVMNYYTEYFEDAGPEREQEVLRQLGSPEQVAREVLGG | -0.0225 |
| HMKVDRLVSMILILLEQQRVGAQELADRFEVSVRTIYRDMEAINQAGIPVRSTSGVGGGFEIM | -0.34 |
| HMSETAVTYNEDFEADGSLRPNEQAVLDAFTGVLKLTVSELEKKTGLRNVVPVVASLMAKGAVEVSEELK | 0.0501 |
| HMLSSAAAIDRILAGGTAAMNHRQFDAALTSFNTVIEMRPDFAEGWNKRATLYYLIGEYERSIADVERTLA | 0.1 |
| HMSELSGSQLKAIREEKHIPLEQVASATRIRLSLLEALEMDEYAELGSRTQARGFLKLYADFLGVPFEA | 0.0345 |
| HMKEETYHYTVRYVTDGGDILASYEGKATKDSVFFPEVKTFDGYTAVRGEEPMFHLVSDHAVFQIVYQKNG | -0.147 |
| HMPRPFPELTTREHDILALIARGWSNGRIADHLSLSGKTVSNYVSNILGKLQVTARAEAAERAREAGMGQ | -0.00905 |
| HMGPNPLTEREQEILQLARTGEPVARLAKRLFLSPGTVRNHLSSAIGKLGAANRVEAAQFATERGW | 0.0816 |
| HMSNRFIQFRQRAIDWLNSDRDFNAGILLLEESGFKPGVVAKLKRHGVNGPEAKKRLKFLINELVKAWA | -0.0824 |
| HMRIHKQLGDRIRNLRLSSGMNQEELAFKSGISAAHLGQIERGLKSPTISTIQKIAKALNVTLPILF | -0.298 |
| HMSAMSPTEVGERLRLAREAVRMTQKQAADAISVARTTLVAIEQGQRRVRIDELQQLAKTYGVSVNAILR | -0.757 |
| HMTRVDKLQTWLSLPREQRDWDEGALMLLQLTGNKIMYRNLSVNPEGKANFIEGKLQQYLEFRLA | -1.26 |
| HMVDYIGRRGVMLSTVSEEKMGNAEVVIDGNSYNIYVKSLDGSTIAYHQEILIINKSKDNNYFLVQIY | -2.63 |
| HMQLEPLITSVIPVNFAKAGEVATTIKGKEVGLVSDRGSITAESRTNVLIVKDIKKNVDDISAMVKRLD | 0.123 |
| HMLAVSVDKDGKVYIQDSETAVDAVTAKLRAISGNNSEIRIFVRGDADVNYGRIMEIMGVINAAGFRKVAL | -0.467 |
| HMTSTSVKYVNSSSGLNVRKGPSTSYDKVTTLVNGTKVTVISTNNGWSKITSGSITGYVSSQYLSSSS | -0.147 |
| HMLEAMDSDEAAKVIEQIVNERADFVRSKGMGAIGPLMGPVMGALRGKVDGKQANELLTAAIKKLL | 0.273 |
| HMDYNLTKNQKIVFNLLQNSGEPLKAYTILESLKREGLKSPLQVYRALDKLVELGIIHKIESQNSFI | -0.45 |
| HMDIEVEVPNLVGMSLDEAKSIIQSMGLVVGLTIEDPSAKVSDNSVTKQKPTYQTGVKLRSGDMIDIWYAG | -0.102 |
